“Also recorded” adds a separate entry of the source.

Data set [1] deals with native TrkB receptors in DRG neurons (mouse) (mouse) (UniProt P15209). The experiment in a line: Qdot 655 conjugated ligand on dissociated DRG of TrkBCreERT2::Rosa26RFP mice, counting of labelled cells.
The next data set has as its system TrkB positive afferents. The experiment in a line: Innervation of skin and DRG neuron counts after photoablation. It is filed as in vivo, mouse. From the text: Prior to photoablation, TrkB positive lanceolate endings were detected around hair follicles (FIG. 9a) and innervating Meissner corpuscles in the plantar surface of the paw. […] It was further investigated whether loss of TrkB^CreERT2 neurons was also evident at the level of the cell soma by analyzing the number of TrkB^CreERT2 positive neurons in the DRG.

The subject of the next data set is skin cell types. Conditions: mouse, in vivo.
Data set [2] relates to HEK293T cells expressing TrkB/p75. The experiment in a line: BDNF^SNAP-IR700 photoablation of HEK293T cells (propidium iodide). It is filed as cell-based. From the text:
In initial experiments BDNF^SNAP-IR700 was applied to HEK293T cells expressing TrkB/p75 and cell death assayed following near infrared illumination.

Data set [3] has as its system baseline sensory behavior. The experiment in a line: Behavioral responses under basal conditions after photoablation in the paw. Format: in vivo, mouse. On the procedure: (§1) The inventors next sought to assess the therapeutic potential of this approach by investigating the effects of BDNF^SNAP-IR700 mediated photoablation in wildtype mice with neuropathic pain. Upon establishment of robust mechanical allodynia three days after SNI, a range of concentrations of BDNF^SNAP-IR700 was injected into the ipsilateral paw of injured mice and the skin illuminated with different light intensities. […] It was examined whether such pronounced effects were also evident in other types of neuropathic pain. […] To determine the selectivity of this approach, the inventors further assessed the effects of BDNF^SNAP-IR700 mediated photoablation on behavioral responses under basal conditions. No deficits in sensitivity to cold, heat, or pinprick upon treatment were observed (FIG. 8f to h). Responses to cotton swab were also unaffected by photoablation (FIG. 3i), perhaps because the skin area that is stimulated in this test extends beyond the zone of illumination.

The test system of a further data set is TrkB sensory fibers. Put plainly: Behavioral sensitivity after photoablation in the sciatic nerve. Format: in vivo, mouse.
Data set [4] concerns TrkB+ neurons. The experiment in a line: Streptozotocin model of painful diabetic neuropathy. It is filed as in vivo, mouse. On the procedure:
as §1

Data set [5] relates to TrkB+ neurons. Put plainly: Paclitaxel model of chemotherapy induced neuropathic pain. It is filed as in vivo, mouse. On the procedure:
as §1

For data set [6], the system named is TrkB+ neurons. Put plainly: Spared Nerve Injury (SNI) model, photoablation in the paw. It is filed as in vivo, mouse.
Excerpt: Next neuropathic pain was induced in mice using the Spared Nerve Injury (SNI) model. Control mice developed a profound mechanical hypersensitivity in the sural nerve territory of the paw to both von Frey filaments and dynamic brush stimuli (FIGS. 6D and E). […] The inventors performed further experiments in TrkBCreERT2::Rosa26ChR2 mice to optogenetically activate these neurons. Three days after injury it was observed that selective stimulation of TrkB neurons with light evoked behavior indicative of pain. This was evident as a prolonged paw withdrawal from the stimulation, lifting of the paw and licking of the illuminated area (FIG. 6F) that continued for several minutes after light application. Such behavior persisted throughout the 2 weeks observation period and was never observed in control mice (FIG. 6F).
as §1

The target of another data set is T1, IL31 Receptor A (IL31RA) (Mus musculus, UniProt Q8K5B1).
T1 construct: from tissue; host or cells: mouse back skin (nape of the neck), in vivo
T1 sequence (Q8K5B1 19-716): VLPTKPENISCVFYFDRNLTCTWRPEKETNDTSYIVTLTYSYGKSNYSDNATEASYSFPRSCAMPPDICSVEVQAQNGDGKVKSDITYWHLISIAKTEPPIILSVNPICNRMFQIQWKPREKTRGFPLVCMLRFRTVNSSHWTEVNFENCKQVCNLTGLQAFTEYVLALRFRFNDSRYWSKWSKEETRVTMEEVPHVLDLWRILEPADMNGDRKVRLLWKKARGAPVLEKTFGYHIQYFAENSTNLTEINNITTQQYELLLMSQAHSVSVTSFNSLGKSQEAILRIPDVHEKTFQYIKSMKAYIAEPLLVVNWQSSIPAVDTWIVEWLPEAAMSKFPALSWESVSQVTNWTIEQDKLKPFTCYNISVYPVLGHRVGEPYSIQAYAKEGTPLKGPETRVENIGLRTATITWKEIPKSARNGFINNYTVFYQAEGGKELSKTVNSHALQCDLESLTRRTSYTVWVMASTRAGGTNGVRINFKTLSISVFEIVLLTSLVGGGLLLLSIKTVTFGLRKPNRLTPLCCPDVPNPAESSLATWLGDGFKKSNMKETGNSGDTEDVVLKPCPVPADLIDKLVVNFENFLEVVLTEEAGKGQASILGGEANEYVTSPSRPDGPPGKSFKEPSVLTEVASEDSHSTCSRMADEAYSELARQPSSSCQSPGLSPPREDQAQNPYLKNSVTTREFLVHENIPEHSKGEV
T1 sequence (O70458 24-971 partner): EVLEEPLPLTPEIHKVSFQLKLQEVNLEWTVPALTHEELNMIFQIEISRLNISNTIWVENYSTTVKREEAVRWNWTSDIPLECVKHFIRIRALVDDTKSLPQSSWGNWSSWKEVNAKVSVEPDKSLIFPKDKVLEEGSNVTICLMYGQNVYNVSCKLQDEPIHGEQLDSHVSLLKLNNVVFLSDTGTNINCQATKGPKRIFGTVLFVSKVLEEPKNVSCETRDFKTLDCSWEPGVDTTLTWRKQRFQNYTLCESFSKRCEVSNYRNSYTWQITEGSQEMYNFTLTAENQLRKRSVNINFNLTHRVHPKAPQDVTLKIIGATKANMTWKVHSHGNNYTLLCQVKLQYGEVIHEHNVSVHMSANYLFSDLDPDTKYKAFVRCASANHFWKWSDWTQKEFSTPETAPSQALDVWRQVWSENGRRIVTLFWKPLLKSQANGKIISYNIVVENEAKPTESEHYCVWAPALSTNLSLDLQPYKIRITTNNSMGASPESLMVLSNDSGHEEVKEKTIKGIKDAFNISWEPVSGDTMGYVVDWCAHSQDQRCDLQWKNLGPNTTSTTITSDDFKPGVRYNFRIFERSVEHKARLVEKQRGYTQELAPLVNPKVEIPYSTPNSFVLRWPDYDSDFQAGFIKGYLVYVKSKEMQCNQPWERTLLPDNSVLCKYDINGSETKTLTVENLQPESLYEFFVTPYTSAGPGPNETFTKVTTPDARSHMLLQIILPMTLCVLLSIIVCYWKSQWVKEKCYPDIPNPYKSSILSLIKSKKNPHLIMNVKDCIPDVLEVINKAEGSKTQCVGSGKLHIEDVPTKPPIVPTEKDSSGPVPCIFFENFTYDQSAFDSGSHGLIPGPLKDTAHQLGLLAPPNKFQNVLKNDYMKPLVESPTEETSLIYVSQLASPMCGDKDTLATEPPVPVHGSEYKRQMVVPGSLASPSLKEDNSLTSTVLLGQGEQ
Put plainly: In vivo skin labelling after intradermal injection. As to conditions: wildtype mice; intradermal injection into back skin. From the text: The inventors produced recombinant IL31 with a C-terminal fusion of SNAP (IL31^SNAP) in E. Coli. […] To determine whether IL31^SNAP was functional the inventors first performed binding studies in primary keratinocyte cultures. IL31^SNAP was labelled in vitro with BG-Surface549 and applied to keratinocytes from wildtype or IL31 Receptor A (IL31RA) knockout mice (IL31RA^−/−). […] The inventors further examined IL31^SNAP labelling in vivo by injecting IL31^SNAP-Surface549 intradermally into the back skin of wild type and IL31RA^−/− mice. […] Finally, the inventors determined whether IL31^SNAP was active by quantifying scratching behavior in mice upon intradermal injection. […] Thus the IL31^SNAP retains the functional properties of native IL31.
For skin labelling, intradermal injection of 5 μM IL31^SNAP coupled with 5 μM BG549surf was performed in the nape of the neck. After […] (30 min) skin was collected, fix in PFA 4% overnight, OCT-embedded and cryo-sectioned (25 μm).

Where [7] appears, read: injection into sciatic nerve, nerve illuminated.
The mark [8] stands for this setting: SNI mice, injection into ipsilateral paw and illumination.

native TrkB receptors in DRG neurons (mouse) (mouse), sequence (P15209 32-821): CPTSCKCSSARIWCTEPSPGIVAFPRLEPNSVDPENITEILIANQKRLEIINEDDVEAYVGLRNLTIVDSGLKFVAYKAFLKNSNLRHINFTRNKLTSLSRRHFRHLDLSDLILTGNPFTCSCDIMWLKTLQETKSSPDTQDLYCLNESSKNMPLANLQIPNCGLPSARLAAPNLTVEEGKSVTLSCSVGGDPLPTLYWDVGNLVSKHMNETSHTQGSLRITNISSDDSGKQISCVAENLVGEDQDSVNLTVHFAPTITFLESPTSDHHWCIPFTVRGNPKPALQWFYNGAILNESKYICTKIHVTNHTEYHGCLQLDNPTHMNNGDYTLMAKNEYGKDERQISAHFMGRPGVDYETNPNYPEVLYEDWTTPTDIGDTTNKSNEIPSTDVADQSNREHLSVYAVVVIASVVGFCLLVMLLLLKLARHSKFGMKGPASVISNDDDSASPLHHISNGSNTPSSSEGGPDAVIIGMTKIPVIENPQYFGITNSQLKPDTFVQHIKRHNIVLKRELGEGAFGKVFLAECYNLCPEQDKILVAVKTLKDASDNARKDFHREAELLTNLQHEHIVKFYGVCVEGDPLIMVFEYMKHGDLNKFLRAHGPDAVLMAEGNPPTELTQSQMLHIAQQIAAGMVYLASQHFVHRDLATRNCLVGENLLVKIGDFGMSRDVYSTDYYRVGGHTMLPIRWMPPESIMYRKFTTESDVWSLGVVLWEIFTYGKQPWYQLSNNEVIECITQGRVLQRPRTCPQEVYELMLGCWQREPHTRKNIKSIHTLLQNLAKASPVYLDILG
Excerpt for TrkB sensory fibers: It was further investigated whether optogenetically evoked pain behavior in SNI mice is dependent upon CD34 + cells or TrkB+ fibers in the skin.

BDNF^SNAP (ligand) returned an overlap between BDNF^SNAP and TrkBCreERT2 positive cells in data set [1] of over 95%.

B1: BDNF^SNAP-IR700: BDNF^SNAP conjugated in vitro to benzylguanine modified IRDye®700 DX phthalocyanine (conjugate, UniProt P23560 19-247, looked up)
Neurotrophic factor BDNF …: APMKEANIRGQGGLAYPGVRTHGTLESVNGPKAGSRGLTSLADTFEHVIEELLDEDQKVRPNEENNKDADLYTSRVMLSSQVPLEPPLLFLLEEYKNYLDAANMSMRVRRHSDPARRGELSVCDSISEWVTAADKKTAVDMSGGTVTVLEKVPVSKGQLKQYFYETKCNPMGYTKEGCRGIDKRHWNSQCRTTQSYVRALTMDSKKRIGWRFIRIDTSCVCTLTIKRGR
modifications: C-terminal SNAP tag; IRDye700DX conjugate
notes: BDNF^SNAP conjugated in vitro to benzylguanine modified IRDye®700 DX phthalocyanine
Consider B1, for which the “innervation of hairy and glabrous skin” value with TrkB positive afferents (7 days after photoablation (13 days post-SNI)) is “selective loss of TrkB fibers but persistent innervation by PGP9.5 fibers; also recorded: Substantial loss of TrkB^CreERT2 positive afferents (red), but persistence of other fibers”. Besides, the “proportion of TrkB neurons in the DRG” value in the data set on TrkB positive afferents (10 days after photoablation) was “No differences in the proportion of TrkB neurons”. Moreover, the “innervation of skin by TrkB positive fibers” value with TrkB positive afferents (24 days post-photoablation) is “TrkB positive fibers were again seen innervating their appropriate end organs; also recorded: Reinnervation of skin by TrkB^CreERT2 afferents”. Further, in the data set on skin cell types, the “number of CD34 positive cells in the skin” value is on record as “significantly reduced the number of CD34 positive cells”; the “numbers of Merkel cells, keratinocytes, dendritic and dermal antigen presenting cells in the skin” value was “did not alter their numbers”. Further, the “cell death after near infrared illumination” value in data set [2] (HEK293T cells expressing TrkB/p75, 24 hours after brief illumination) is listed as “substantial cell death”. The “cell death after near infrared illumination” value in data set [2] (mock transfected HEK293T cells) was “not evident”. In addition, in data set [3], the “responses to cotton swab” value is listed as “unaffected; also recorded: does not affect baseline sensory behavior responses”, the “sensitivity to cold (acetone drop test)” value is “No deficits; also recorded: does not affect baseline sensory behavior responses”, the “sensitivity to heat (hot plate test)” value is “No deficits; also recorded: does not affect baseline sensory behavior responses” and the sensitivity to pinprick entry was “No deficits; also recorded: does not affect baseline sensory behavior responses”. The “light driven nocifensive behavior” value in the data set with TrkB sensory fibers (TrkB^CreERT2::Rosa26^ChR2 mice with SNI, sciatic nerve photoablation) is “significant reduction in light driven nocifensive behavior; also recorded: reduced by nerve photoablation”. The “behavioral response to cooling (acetone drop test)” value in the data set with TrkB sensory fibers (injection into sciatic nerve at mid-thigh level, nerve illuminated) is “normal; also recorded: not altered by nerve photoablation”. Also, in the data set with TrkB sensory fibers (setting [7]), the “behavioral response to heating (radiant heat test)” value is recorded as “normal; also recorded: not altered by nerve photoablation”, the “behavioral response to pinprick” value was “normal; also recorded: not altered by nerve photoablation” and the “sensitivity to cotton swab” value is listed as “reduced by nerve photoablation”. In the data set with TrkB+ neurons [4], the “return to injury levels” value was at most 20 days and the “time of peak reversal” value is recorded as “around 10 days post treatment”. The mechanical hypersensitivity result in the data set with TrkB+ neurons [4] (5 μM at 200 J/cm^2) was “marked reversal of mechanical hypersensitivity; also recorded: reverses mechanical allodynia”. Also, in the data set on TrkB+ neurons [5], the “return to injury levels” value is at most 20 days and the “time of peak reversal” value was “around 10 days post treatment”. In the data set with TrkB+ neurons [5] (5 μM at 200 J/cm^2), the mechanical hypersensitivity entry is on record as “marked reversal of mechanical hypersensitivity; also recorded: reverses mechanical allodynia”. Besides, in the data set on TrkB+ neurons [6] (setting [8]), the “cotton swab evoked allodynia” value is “concentration and illumination dependent rescue; also recorded: reversed by photoablation”; the “dynamic brush evoked allodynia” value is “concentration and illumination dependent rescue; also recorded: dose dependent reversal of mechanical hypersensitivity”; the “von Frey withdrawal thresholds” value was “concentration and illumination dependent rescue; also recorded: dose dependent reversal of mechanical hypersensitivity”. Further, in the data set on TrkB+ neurons [6] (after a single treatment regime), the persistence of rescue entry is “more than 3 weeks”.

B2: IL31^SNAP-Surface549: IL31^SNAP labelled in vitro with BG-Surface549 (conjugate)
chain: TCSLSFGAPISKEDLRTTIDLLKQESQDLYNNYSIKQASGMSADESIQLPCFSLDREALTNISVIIAHLEKVKVLSENTVDTSWVIRWLTNISCFNPLNLNISVPGNTDESYDCKVFVLTVLKQFSNCMAELQAKDNTTC
modifications: left off: small tags and cut ends
As for B2, the “fluorescent signal in cells in skin sections” value in the data set with IL31 Receptor A (IL31RA) was “fluorescent signal was observed”.

These data come from patent US20190184015A1, “IRRADIATION TREATMENT OF NEUROLOGICAL SENSATIONS BY PHOTOABLATION” (European Molecular Biology Laboratory, priority 2016, published 2019).
